The supplement of paper PMC9112550, “Optimization of the antimicrobial peptide Bac7 by deep mutational scanning” (BMC Biology, 2022)

tested on: Escherichia coli TOP10; test: shrunken log2 fold change of peptide-encoding DNA abundance (4.5 h post-induction vs induction); higher = less antimicrobial activity (less host growth inhibition); settings: time post-induction: 4.5 h; library: site-saturation at positions 5, 18, 19, 20
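Further: peptides expressed intracellularly from a pBAD plasmid library in pooled LB shake-flask culture, induced with 0.3% L-arabinose, DNA abundance read by NGS, three biological replicates, DESeq2 with apeglm shrinkage.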

Sequence | shrunken log2 fold change
RRIRPRPPRLPRPRPRPNCVPRP | -0.0731
RRIRHRPPRLPRPRPRPHERPRP | -0.00134
RRIRNRPPRLPRPRPRPIMKPRP | -0.059
RRIRDRPPRLPRPRPRPMWIPRP | -0.306
RRIRHRPPRLPRPRPRPMVYPRP | -0.0125
RRIRCRPPRLPRPRPRPMDSPRP | -0.142
RRIRDRPPRLPRPRPRPCYFPRP | -0.31
RRIRQRPPRLPRPRPRPDWFPRP | -0.104
RRIRERPPRLPRPRPRPMFGPRP | 0.0215
RRIRSRPPRLPRPRPRPGYLPRP | -0.388
RRIRIRPPRLPRPRPRPIHRPRP | -0.197
RRIRHRPPRLPRPRPRPLLLPRP | -0.208
RRIRPRPPRLPRPRPRPEGMPRP | 0.305
RRIRCRPPRLPRPRPRPGNHPRP | -0.587
RRIRRRPPRLPRPRPRPGMEPRP | 0.0306
RRIRCRPPRLPRPRPRPADGPRP | -0.129
RRIRCRPPRLPRPRPRPRNLPRP | -0.222
RRIRKRPPRLPRPRPRPGTCPRP | 0.258
RRIRKRPPRLPRPRPRPAMGPRP | 0.14
RRIRERPPRLPRPRPRPVNNPRP | -0.871
RRIRHRPPRLPRPRPRPCLSPRP | 0.0289
RRIRRRPPRLPRPRPRPIYNPRP | -0.246
RRIRLRPPRLPRPRPRPRRGPRP | 0.543
RRIRRRPPRLPRPRPRPFFQPRP | -0.111
RRIRMRPPRLPRPRPRPGHDPRP | 0.0618

Sequence | shrunken log2 fold change
RRIRNRPPRLPRPRPRPVQMPRP | 0.0259
RRIRLRPPRLPRPRPRPQEPPRP | -0.0198
RRIRMRPPRLPRPRPRPNGSPRP | -0.000925
RRIRLRPPRLPRPRPRPWGPPRP | -0.24
RRIRDRPPRLPRPRPRPGERPRP | 0.276
RRIRIRPPRLPRPRPRPTEVPRP | 0.232
RRIRPRPPRLPRPRPRPQTRPRP | 0.227
RRIRFRPPRLPRPRPRPERHPRP | -0.00647
RRIRWRPPRLPRPRPRPETCPRP | 0.16
RRIRNRPPRLPRPRPRPDNQPRP | -0.323
RRIRNRPPRLPRPRPRPREQPRP | -0.00697
RRIRVRPPRLPRPRPRPNPNPRP | -0.108
RRIRARPPRLPRPRPRPIRLPRP | -0.0928
RRIRHRPPRLPRPRPRPNLSPRP | 0.28
RRIRERPPRLPRPRPRPDNHPRP | -0.802
RRIRARPPRLPRPRPRPLTYPRP | 0.0247
RRIRHRPPRLPRPRPRPQEMPRP | -0.0755
RRIRMRPPRLPRPRPRPIKPPRP | -0.231
RRIRIRPPRLPRPRPRPPSAPRP | 0.369
RRIRIRPPRLPRPRPRPQENPRP | -0.494
RRIRFRPPRLPRPRPRPMWTPRP | -0.37
RRIRTRPPRLPRPRPRPIPIPRP | -0.0307
RRIRVRPPRLPRPRPRPIVFPRP | 0.0602
RRIRRRPPRLPRPRPRPERPPRP | 0.991
RRIRVRPPRLPRPRPRPMDFPRP | -0.205

Sequence | shrunken log2 fold change
RRIRWRPPRLPRPRPRPFVTPRP | -0.215
RRIRCRPPRLPRPRPRPKTHPRP | -0.115
RRIRMRPPRLPRPRPRPKSKPRP | 0.566
RRIRKRPPRLPRPRPRPEKWPRP | 0.422
RRIRKRPPRLPRPRPRPQQCPRP | -0.371
RRIRFRPPRLPRPRPRPAQMPRP | 0.121
RRIRVRPPRLPRPRPRPAHPPRP | 0.0808
RRIRVRPPRLPRPRPRPGCHPRP | 0.363
RRIRFRPPRLPRPRPRPEAQPRP | 0.383
RRIRYRPPRLPRPRPRPTFVPRP | -0.0102
RRIRLRPPRLPRPRPRPWNSPRP | -0.018
RRIRKRPPRLPRPRPRPEFGPRP | 0.0185
RRIRPRPPRLPRPRPRPMRGPRP | 0.887
RRIRQRPPRLPRPRPRPEAGPRP | 0.109
RRIRLRPPRLPRPRPRPAHFPRP | -0.197
RRIRIRPPRLPRPRPRPMGCPRP | 0.00177
RRIRLRPPRLPRPRPRPLLTPRP | 0.0657
RRIRMRPPRLPRPRPRPHVWPRP | 0.281
RRIRIRPPRLPRPRPRPFTWPRP | -0.924
RRIRIRPPRLPRPRPRPEDVPRP | -0.0939
RRIRFRPPRLPRPRPRPGAYPRP | 0.116
RRIRTRPPRLPRPRPRPTPTPRP | 0.289
RRIRVRPPRLPRPRPRPEWSPRP | 0.267
RRIRSRPPRLPRPRPRPFLMPRP | 3.07
RRIRMRPPRLPRPRPRPPVAPRP | 1.3

Sequence | shrunken log2 fold change
RRIRARPPRLPRPRPRPIYGPRP | 0.0455
RRIRHRPPRLPRPRPRPMHSPRP | 0.0758
RRIRLRPPRLPRPRPRPEPPPRP | 0.53
RRIRHRPPRLPRPRPRPRYGPRP | -0.629
RRIRLRPPRLPRPRPRPSWGPRP | 0.00407
RRIRLRPPRLPRPRPRPDCHPRP | 0.092
RRIRDRPPRLPRPRPRPQYPPRP | -0.219
RRIRFRPPRLPRPRPRPTYIPRP | -0.434
RRIRERPPRLPRPRPRPQWNPRP | -0.33
RRIRERPPRLPRPRPRPTHKPRP | 0.0682
RRIRARPPRLPRPRPRPMYNPRP | -0.48
RRIRMRPPRLPRPRPRPSNIPRP | -0.227
RRIRCRPPRLPRPRPRPALPPRP | 0.143
RRIRERPPRLPRPRPRPVYGPRP | -0.375
RRIRWRPPRLPRPRPRPAQWPRP | 0.287
RRIRIRPPRLPRPRPRPPQMPRP | -0.0135
RRIRFRPPRLPRPRPRPARRPRP | 0.435
RRIRTRPPRLPRPRPRPFFLPRP | -0.299
RRIRYRPPRLPRPRPRPNTQPRP | -0.17
RRIRCRPPRLPRPRPRPTSDPRP | 0.129
RRIRHRPPRLPRPRPRPMPAPRP | 0.337
RRIRLRPPRLPRPRPRPFAFPRP | -0.442
RRIRIRPPRLPRPRPRPGKGPRP | -0.185
RRIRIRPPRLPRPRPRPWKSPRP | -0.0108
RRIRHRPPRLPRPRPRPERRPRP | 0.0748

Sequence | shrunken log2 fold change
RRIRLRPPRLPRPRPRPFSPPRP | 2.3
RRIRKRPPRLPRPRPRPHLLPRP | 0.00821
RRIRWRPPRLPRPRPRPGKVPRP | -0.132
RRIRKRPPRLPRPRPRPTYMPRP | -0.121
RRIRSRPPRLPRPRPRPPHSPRP | 0.113
RRIRYRPPRLPRPRPRPRSKPRP | -0.439
RRIRIRPPRLPRPRPRPQEFPRP | 0.0204
RRIRTRPPRLPRPRPRPIITPRP | -0.645
RRIRYRPPRLPRPRPRPIPSPRP | -0.0334
RRIRYRPPRLPRPRPRPSHMPRP | -0.0573
RRIRVRPPRLPRPRPRPKRGPRP | 0.054
RRIRRRPPRLPRPRPRPFMQPRP | -0.0994
RRIRYRPPRLPRPRPRPCCFPRP | -0.709
RRIRMRPPRLPRPRPRPRFNPRP | 0.148
RRIRARPPRLPRPRPRPECIPRP | 0.781
RRIRARPPRLPRPRPRPLMLPRP | 0.32
RRIRSRPPRLPRPRPRPSTLPRP | 0.658
RRIRTRPPRLPRPRPRPQPLPRP | 0.284
RRIRPRPPRLPRPRPRPPMQPRP | 0.421
RRIRTRPPRLPRPRPRPLRIPRP | 0.00602
RRIRMRPPRLPRPRPRPYRDPRP | -0.018
RRIRGRPPRLPRPRPRPPQWPRP | 0.801
RRIRLRPPRLPRPRPRPTPDPRP | 0.626
RRIRERPPRLPRPRPRPQLSPRP | 0.1
RRIRARPPRLPRPRPRPSWYPRP | -0.25

Sequence | shrunken log2 fold change
RRIRTRPPRLPRPRPRPFKVPRP | 0.0475
RRIRGRPPRLPRPRPRPDWQPRP | 0.336
RRIRLRPPRLPRPRPRPHIRPRP | -0.108
RRIRGRPPRLPRPRPRPMWKPRP | 0.0121
RRIRVRPPRLPRPRPRPQECPRP | -0.00813
RRIRGRPPRLPRPRPRPLPHPRP | 0.638
RRIRNRPPRLPRPRPRPNFAPRP | 0.0544
RRIRYRPPRLPRPRPRPMTYPRP | -0.0131
RRIRQRPPRLPRPRPRPMITPRP | -0.166
RRIRERPPRLPRPRPRPEIEPRP | 0.0286
RRIRQRPPRLPRPRPRPLSAPRP | 0.0436
RRIRWRPPRLPRPRPRPSKCPRP | -0.00209
RRIRGRPPRLPRPRPRPGNLPRP | -0.639
RRIRKRPPRLPRPRPRPWKGPRP | 0.0195
RRIRARPPRLPRPRPRPFKEPRP | -0.0239
RRIRVRPPRLPRPRPRPLRNPRP | 0.408
RRIRGRPPRLPRPRPRPCFFPRP | 0.392
RRIRGRPPRLPRPRPRPQDQPRP | 0.531
RRIRRRPPRLPRPRPRPITAPRP | 0.148
RRIRIRPPRLPRPRPRPIEEPRP | -0.0195
RRIRVRPPRLPRPRPRPIIMPRP | 0.0741
RRIRSRPPRLPRPRPRPWRCPRP | 0.0757
RRIRYRPPRLPRPRPRPVYAPRP | -0.683
RRIRGRPPRLPRPRPRPKQDPRP | 0.881
RRIRYRPPRLPRPRPRPHDTPRP | -0.313
